From US20260176335A1 (TRUSTEES OF COLUMBIA UNIVERSITY IN THE CITY OF NEW YORK, published 2026)

Experiments:
[1] = molecular target: T1, human serum amyloid A1 (SAA1) (human, UniProt P0DJI8 19-122); experiment: Kd calculated from competitive binding curves (competitive peptide 0.625-80 nM against SAA1 at 150 ng/ml), NFκB-luciferase reporter cell readout
T1 construct: also called SAA1 antigen; SAA1 protein
T1 sequence (looked up): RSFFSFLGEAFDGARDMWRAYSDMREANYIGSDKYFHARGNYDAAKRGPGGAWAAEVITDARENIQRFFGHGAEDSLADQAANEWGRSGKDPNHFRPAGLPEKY
Description: Raw 264.7-NFκB-Luc cells were seeded at a density of 60,000 cells in 40 μl media/well in a 96-well plate. The plate was placed at 37° C. in a 5% CO₂ incubator overnight to allow cells to adhere. 5 μL of SAA1 antigen solution (150 ng/ml) was added to each well. 10 μL of the competitive antigen standard solution was added to the respective wells. 10 μL of the purified antibody (18A3-S1-F) solution was added to each well.
The plate was incubated at 37° C. in a 5% CO₂ incubator for 2 hours to allow binding between the antibody and antigens. 10 μL of the viability dye (i.e., the Cell Titer Fluor reagent; Promega) was added, and the plate was rocked for 5 minutes and incubated at 37° C. in a 5% CO₂ incubator for 30 minutes. Then […] reading was taken with 7-amino-4-trifluoromethyl-coumarin (AFC) (excitation 405 nm/emission […]). After 3 hours, 1:1 Bright Glo Luciferase reagent (Promega) was added, and the plate was rocked for 5 minutes in dark (covered with foil) before the reading was taken.
The dissociation constant (Kd) was calculated from the competitive binding curves (FIG. 4E). The lower the Kd value, the higher the binding affinity of the antibody.

[2] = molecular target: T1, human serum amyloid A1 (SAA1); experiment: cell-based or functional assay

Kd [1]: 0.94 to 1.12 nM | EC50 (half-maximal inhibition of SAA1-induced NFκβ activation, reporter assay) [2]: 2.55 nM
B1: murine anti-SAA1 18A3 antibody (antibody, V domains shown)
VH: DVQLVESGGGLVQSGGSRKLSCAASGFTFSRFGMHWVRQAPEKGLEWVAYISRGSTKIYYADTVKGRFTISRDNPRNTLFLQMTSLRSEDTAMYYCARSLIYYDYDGFGYWGQGTLVTVSA
VL: DVLMTQTPLSLPLSLGDQASISCRSSQSIVHSNGNTYLEWYLQKPGQSPKLLIYKVSNRFSGVPDRFSGSGSGTDFTLKISRVEAEDLGVYYCFQGSHVPPTFGGGTKLEIK
notes: Murine hybridoma monoclonal antibody; Tested as hybridoma supernatant or as purified antibody from subclone 18A3-S1-F / 18A3-S1; also called 18A3-S1-F; 18A3-S1
